Laboratory results reported in the supplement of paper PMC10724198.
± gives the standard deviation of the averaged measurements.

Experiments:
[1] = tested on: Saccharomyces cerevisiae; test: protein stability index of tFT-peptide fusion (C-terminal peptide) (PSI (0-1 scale)); higher = more stable (slower turnover)
Method: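 MPS profiling in S. cerevisiae of the tFT-X12 degron library: putative degron peptides plus stable controls, 12 aa, fused to the C-terminus of a sfGFP-mCherry timer. Cells are FACS-sorted into 8 mCherry/sfGFP bins and deep-sequenced. PSI runs from 0 (unstable) to 1 (stable). Backgrounds are wild type, das1Δ and doa10Δ at 30 °C, and wild type, das1Δ, cdc34-1 and cdc53-1 at 37 °C; 2-3 technical replicates each.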

[2] = tested on: Saccharomyces cerevisiae; test: as above; details: genetic background: wild type; temperature: 30 C
[3] = genetic background: cdc34-1, temperature: 37 C
[4] = genetic background: cdc53-1, temperature: 37 C
[5] = genetic background: das1 deletion, temperature: 30 C
[6] = genetic background: das1 deletion, temperature: 37 C
[7] = genetic background: doa10 deletion, temperature: 30 C
[8] = genetic background: wild type, temperature: 30 C
[9] = genetic background: wild type, temperature: 37 C
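Note: PSI is a weighted mean of sequencing reads over stability bins, variants kept only with over 10 reads, mCherry proximal and sfGFP distal, peptide attached via GGGS linker.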

Row | Sequence | protein stability index [1, 3] | protein stability index [1, 4] | protein stability index [1, 5] | protein stability index [1, 6] | protein stability index [1, 7] | protein stability index [1, 8] | protein stability index [1, 9] | protein stability index [2]
1 | LRQKIIYWWLWL | 0.478 ± 0.019 | 0.488 ± 0.021 | 0.472 ± 0.03 | 0.613 ± 0.008 | 0.255 ± 0.011 | 0.245 ± 0.011 | 0.3523 ± 0.001 | 0.313 ± 0.0047
2 | FVVVGVLFLCVG | 0.256 ± 0.0023 | 0.4122 ± 0.00071 | 0.278 ± 0.023 | 0.479 ± 0.011 | 0.258 ± 0.0065 | 0.277 ± 0.03 | 0.442 ± 0.007 | 0.367 ± 0.025
3 | IVCYFFAFSFMW | 0.288 ± 0.014 | 0.399 ± 0.058 | 0.293 ± 0.028 | 0.462 ± 0.0081 | 0.2859 ± 0.0019 | 0.288 ± 0.025 | 0.425 ± 0.024 | 0.362 ± 0.0046
4 | VWWTLWRVHMLG | 0.583 ± 0.028 | 0.644 ± 0.0072 | 0.592 ± 0.018 | 0.7151 ± 0.0031 | 0.106 ± 0.03 | 0.142 ± 0.021 | 0.218 ± 0.026 | 0.243 ± 0.024
5 | SCLLVVVSTSGN | 0.5364 ± 0.0018 | 0.573 ± 0.0061 | 0.404 ± 0.043 | 0.611 ± 0.0019 | 0.374 ± 0.015 | 0.4057 ± 0.002 | 0.588 ± 0.022 | 0.433 ± 0.0062
6 | VWSSSYVPLGVY | 0.319 ± 0.015 | 0.326 ± 0.066 | 0.275 ± 0.044 | 0.443 ± 0.0067 | 0.231 ± 0.015 | 0.271 ± 0.033 | 0.384 ± 0.013 | 0.398 ± 0.044
7 | VFSVTVVFVSVL | 0.158 ± 0.0021 | 0.271 ± 0.062 | 0.192 ± 0.035 | 0.383 ± 0.014 | 0.168 ± 0.011 | 0.191 ± 0.024 | 0.324 ± 0.012 | 0.298 ± 0.046
8 | SVFFRPVLICCA | 0.0234 ± 0.00059 | 0.0313 ± 0.0091 | 0.0774 ± 0.01 | 0.0628 ± 0.0047 | 0.0558 ± 0.0082 | 0.0558 ± 0.013 | 0.048 ± 0.0039 | 0.101 ± 0.037
9 | VWPLAFFLRFFI | 0.547 ± 0.063 | 0.6021 ± 0.0019 | 0.529 ± 0.017 | 0.682 ± 0.017 | 0.247 ± 0.015 | 0.233 ± 0.013 | 0.3623 ± 0.0036 | 0.288 ± 0.014
10 | VTTTWTWTVRLC | 0.538 ± 0.045 | 0.631 ± 0.016 | 0.54 ± 0.018 | 0.656 ± 0.034 | 0.0752 ± 0.019 | 0.0807 ± 0.024 | 0.149 ± 0.0059 | 0.15 ± 0.024
11 | VRIGCSLLFFLP | 0.661 ± 0.036 | 0.734 ± 0.014 | 0.589 ± 0.0067 | 0.6934 ± 0.0062 | 0.478 ± 0.015 | 0.501 ± 0.015 | 0.6267 ± 0.0046 | 0.532 ± 0.051
12 | VFSAIPDWLILA | 0.492 ± 0.017 | 0.5094 ± 0.0035 | 0.387 ± 0.041 | 0.5492 ± 0.0043 | 0.279 ± 0.013 | 0.319 ± 0.016 | 0.462 ± 0.018 | 0.453 ± 0.0079
13 | ALEFLLLVCRRL | 0.589 ± 0.026 | 0.621 ± 0.024 | 0.457 ± 0.011 | 0.6018 ± 0.0059 | 0.31 ± 0.026 | 0.334 ± 0.028 | 0.517 ± 0.013 | 0.418 ± 0.012
14 | SFVVVFTFFFGC | 0.272 ± 0.018 | 0.381 ± 0.031 | 0.239 ± 0.032 | 0.408 ± 0.026 | 0.221 ± 0.011 | 0.258 ± 0.036 | 0.377 ± 0.02 | 0.312 ± 0.015
15 | WGRFFWGCGVWV | 0.631 ± 0.07 | 0.7128 ± 0.0035 | 0.6 ± 0.016 | 0.725 ± 0.0095 | 0.438 ± 0.016 | 0.463 ± 0.032 | 0.644 ± 0.031 | 0.55 ± 0.074
16 | FCVLLFYCFFFF | 0.322 ± 0.011 | 0.322 ± 0.099 | 0.276 ± 0.039 | 0.38 ± 0.0096 | 0.314 ± 0.012 | 0.273 ± 0.032 | 0.335 ± 0.041 | 0.356 ± 0.03
17 | GVLLLGSYQWVG | 0.306 ± 0.031 | 0.394 ± 0.021 | 0.368 ± 0.029 | 0.334 ± 0.0053 | 0.395 ± 0.008 | 0.373 ± 0.025 | 0.317 ± 0.0059 | 0.313 ± 0.007
18 | GFESTCSLLCVF | 0.33 ± 0.026 | 0.348 ± 0.015 | 0.314 ± 0.036 | 0.433 ± 0.001 | 0.264 ± 0.021 | 0.306 ± 0.026 | 0.407 ± 0.013 | 0.43 ± 0.029
19 | RSFPCITVFIRA | 0.514 ± 0.011 | 0.469 ± 0.029 | 0.328 ± 0.036 | 0.50913 ± 0.00021 | 0.325 ± 0.03 | 0.323 ± 0.023 | 0.5088 ± 0.0019 | 0.4235 ± 0.0035
20 | GWCLGFWCLLVC | 0.0399 ± 0.0089 | 0.0444 ± 0.0049 | 0.123 ± 0.02 | 0.156 ± 0.019 | 0.0958 ± 0.005 | 0.0537 ± 0.018 | 0.068 ± 0.014 | 0.118 ± 0.093
21 | GGKTLSIFLRIS | 0.611 ± 0.029 | 0.693 ± 0.021 | 0.554 ± 0.022 | 0.665 ± 0.0095 | 0.14 ± 0.013 | 0.159 ± 0.013 | 0.295 ± 0.017 | 0.258 ± 0.0057
22 | KERHRNKRKQIA | 0.659 ± 0.011 | 0.741 ± 0.021 | 0.66 ± 0.022 | 0.7046 ± 0.004 | 0.173 ± 0.0077 | 0.205 ± 0.035 | 0.43 ± 0.046 | 0.342 ± 0.038
23 | LVWDLFRCFSML | 0.582 ± 0.018 | 0.7165 ± 0.001 | 0.647 ± 0.032 | 0.759 ± 0.038 | 0.23 ± 0.0054 | 0.228 ± 0.021 | 0.351 ± 0.029 | 0.242 ± 0.026
24 | LKFSLLLPVQVI | 0.327 ± 0.014 | 0.3735 ± 0.0026 | 0.301 ± 0.03 | 0.403 ± 0.0053 | 0.253 ± 0.0088 | 0.283 ± 0.025 | 0.337 ± 0.0053 | 0.3606 ± 0.0013
25 | MCVCLLVRVVPS | 0.188 ± 0.0053 | 0.3241 ± 0.00049 | 0.211 ± 0.029 | 0.41 ± 0.01 | 0.175 ± 0.0074 | 0.194 ± 0.022 | 0.357 ± 0.0044 | 0.297 ± 0.044
26 | MWRWASKCRFSM | 0.668 ± 0.025 | 0.706 ± 0.015 | 0.634 ± 0.015 | 0.759 ± 0.0097 | 0.231 ± 0.012 | 0.245 ± 0.022 | 0.515 ± 0.047 | 0.367 ± 0.011
27 | CSSLIMIITCVN | 0.2613 ± 0.00064 | 0.289 ± 0.013 | 0.244 ± 0.031 | 0.4 ± 0.017 | 0.0883 ± 0.023 | 0.115 ± 0.0091 | 0.122 ± 0.027 | 0.199 ± 0.046
28 | RQINEKKKLYMI | 0.513 ± 0.029 | 0.673 ± 0.14 | 0.639 ± 0.024 | 0.727 ± 0.041 | 0.1 ± 0.013 | 0.102 ± 0.028 | 0.182 ± 0.029 | 0.215 ± 0.033
29 | YNTRLCTFSCML | 0.772 ± 0.013 | 0.8079 ± 0.007 | 0.668 ± 0.033 | 0.7881 ± 0.0015 | 0.657 ± 0.025 | 0.698 ± 0.021 | 0.772 ± 0.011 | 0.755 ± 0.0089
30 | GVLHSKGPWFSG | 0.703 ± 0.028 | 0.757 ± 0.0099 | 0.652 ± 0.0073 | 0.75 ± 0.0095 | 0.65 ± 0.014 | 0.665 ± 0.014 | 0.72815 ± 0.0004 | 0.729 ± 0.017
